Consider one molecule from paper PMC7384961 (Cell, 2020).

This experiment concerns the target T1, FLAG-BirA(R118G)-TBL1XR1 Y446S (human, UniProt Q9BZK7 1-514, Y446S).
T1 sequence (looked up): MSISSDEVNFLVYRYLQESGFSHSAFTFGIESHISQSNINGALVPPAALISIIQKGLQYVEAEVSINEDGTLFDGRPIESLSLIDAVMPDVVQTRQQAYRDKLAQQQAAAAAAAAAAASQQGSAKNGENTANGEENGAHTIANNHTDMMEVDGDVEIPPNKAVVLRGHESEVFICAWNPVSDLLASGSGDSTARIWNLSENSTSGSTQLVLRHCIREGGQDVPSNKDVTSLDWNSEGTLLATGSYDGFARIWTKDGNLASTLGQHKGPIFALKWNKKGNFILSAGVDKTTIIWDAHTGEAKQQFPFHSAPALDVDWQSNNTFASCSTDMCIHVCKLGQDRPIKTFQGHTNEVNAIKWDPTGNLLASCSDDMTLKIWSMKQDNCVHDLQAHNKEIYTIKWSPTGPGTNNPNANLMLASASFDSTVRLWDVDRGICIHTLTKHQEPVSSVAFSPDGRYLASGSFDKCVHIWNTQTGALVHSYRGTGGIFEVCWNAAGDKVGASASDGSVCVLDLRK
In words: proximity labelling.

B1: BACH2 (endogenous) (natural protein)
chain: not shown
On to B1, for which the “fold gain of interaction against TBL1XR1 WT” value is approximately 6 fold.
